Residue numbers refer to the chain shown, from its start.
Columns and labels:
Syncrip NeR1 = target: T1, Syncrip NeR1 (Homo sapiens, UniProt O60506 16-242); experiment: NMR; 50 uM protein, 1:1 and 1:2; BLI: 5 mM Tris-HCl pH 7.4, 50 mM NaCl, 1 mM TCEP, 0.5 mg/mL BSA, 30 C; NMR: 5 mM Tris-HCl pH 7.4, 50 mM NaCl, 0.5 mM TCEP; details: protein: recombinant; tags: His6-SUMO or His, removed by HRV 3C
T1 sequence: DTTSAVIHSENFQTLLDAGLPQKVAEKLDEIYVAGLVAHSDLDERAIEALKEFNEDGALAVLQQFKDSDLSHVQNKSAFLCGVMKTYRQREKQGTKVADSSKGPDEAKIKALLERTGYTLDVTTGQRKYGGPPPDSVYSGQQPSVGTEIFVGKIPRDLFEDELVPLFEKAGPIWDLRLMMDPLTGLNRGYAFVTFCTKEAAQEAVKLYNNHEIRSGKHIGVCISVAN

Syncrip NeR1 R60A G97L = target: T2, Syncrip NeR1 R60A G97L (Homo sapiens, UniProt O60506 16-242, R60A;G97L); experiment: NMR; 50 uM protein, 1:1 and 1:2; legend: binding eliminated (text: impaired); BLI: 5 mM Tris-HCl pH 7.4, 50 mM NaCl, 1 mM TCEP, 0.5 mg/mL BSA, 30 C; NMR: 5 mM Tris-HCl pH 7.4, 50 mM NaCl, 0.5 mM TCEP; details: protein: recombinant; tags: His6-SUMO or His, removed by HRV 3C
T2 sequence: T1 sequence with R45A, G82L

Syncrip NeR1R2R3 [1] = target: T3, Syncrip NeR1R2R3 (Homo sapiens, UniProt O60506 16-428); experiment: NMR; only NURR resonances shift; BLI: 5 mM Tris-HCl pH 7.4, 50 mM NaCl, 1 mM TCEP, 0.5 mg/mL BSA, 30 C; NMR: 5 mM Tris-HCl pH 7.4, 50 mM NaCl, 0.5 mM TCEP; details: protein: recombinant; tags: His6-SUMO or His, removed by HRV 3C
T3 sequence: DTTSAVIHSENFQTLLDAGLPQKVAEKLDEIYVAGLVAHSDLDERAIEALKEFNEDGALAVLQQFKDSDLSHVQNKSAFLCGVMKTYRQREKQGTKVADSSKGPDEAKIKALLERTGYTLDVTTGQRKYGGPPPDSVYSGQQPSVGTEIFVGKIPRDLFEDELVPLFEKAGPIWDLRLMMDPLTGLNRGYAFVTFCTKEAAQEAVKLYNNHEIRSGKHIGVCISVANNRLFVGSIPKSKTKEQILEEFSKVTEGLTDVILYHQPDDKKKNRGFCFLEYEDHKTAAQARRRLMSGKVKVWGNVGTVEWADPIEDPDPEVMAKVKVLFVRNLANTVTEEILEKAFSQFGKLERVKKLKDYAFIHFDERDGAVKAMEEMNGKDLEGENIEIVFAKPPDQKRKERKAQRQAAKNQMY

Syncrip NURR domain (N) [2] = target: T4, Syncrip NURR domain (N) (Homo sapiens, UniProt O60506 16-109); experiment: NMR; BLI: 5 mM Tris-HCl pH 7.4, 50 mM NaCl, 1 mM TCEP, 0.5 mg/mL BSA, 30 C; NMR: 5 mM Tris-HCl pH 7.4, 50 mM NaCl, 0.5 mM TCEP; details: protein: recombinant; tags: His6-SUMO or His, removed by HRV 3C
T4 sequence: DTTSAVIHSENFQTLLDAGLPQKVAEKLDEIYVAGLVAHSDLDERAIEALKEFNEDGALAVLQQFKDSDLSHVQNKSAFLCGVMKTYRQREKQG

Syncrip NeR1R2R3 [3] = target: T3, Syncrip NeR1R2R3; experiment: BLI; BLI: 5 mM Tris-HCl pH 7.4, 50 mM NaCl, 1 mM TCEP, 0.5 mg/mL BSA, 30 C; NMR: 5 mM Tris-HCl pH 7.4, 50 mM NaCl, 0.5 mM TCEP; details: protein: recombinant; tags: His6-SUMO or His, removed by HRV 3C; label: 5'-biotin
Syncrip NURR domain (N) [4] = target: T4, Syncrip NURR domain (N); experiment: as above; details: protein: recombinant; tags: His6-SUMO or His, removed by HRV 3C; label: 5'-biotin
Syncrip NeR1R2R3 [5] = target: T3, Syncrip NeR1R2R3; experiment: as above; details: protein: recombinant; tags: His6-SUMO or His, removed by HRV 3C; label: 5'-biotin (BLI)

AGGCU (ssRNA) [hEXO-motif RNA]
binding result (Syncrip NeR1): binds
binding result (Syncrip NeR1 R60A G97L): no binding
binding result (Syncrip NeR1R2R3 [1]): binds
binding result (Syncrip NURR domain (N) [2]): binds

UCACUUUGUAGACCAAGUGUU (ssRNA) [chimera miR-3470 (delta-hEXO mutant)]
fold loss of affinity vs miR-3470 wild type (Syncrip NeR1R2R3 [3]): ~6 fold lower affinity than miR-3470 wild type

GUAGACCAGGCUGG (ssRNA) [14mer miR-3470]
Kd (Syncrip NURR domain (N) [4]): 29 ± 2 µM

UCACUUUGUAGACCAGGCUGG (ssRNA) [miR-3470 full-length]
Kd (Syncrip NeR1R2R3 [5]): 0.002 ± 0.0002 µM

Reference: article PMC5827114, “A cryptic RNA-binding domain mediates Syncrip recognition and exosomal partitioning of miRNA targets”
